Laboratory results from US20250101129A1 (AJINOMOTO, published 2025).

B1: QET-Fc3K-PA32-Z34CM (peptide)
chain: QETRGNCAYHKGQIIWCTYHGGAAPAAPAPAAPAAPAPAAPAAPAPAAPAAPAPGGFNMQCQRRFYEALHDPNLNEEQRNARIRSIREEC
modifications: C-terminal -NH2 as printed in the 1st table; N-terminal Gln designed to be pyroglutamylated
B2: QET-Z34CM-PA48-Fc3K (peptide)
chain: QETFNMQCQRRFYEALHDPNLNEEQRNARIRSIREECGGAAPAAPAPAAPAAPAPAAPAAPAPAAPAAPAPAAPAAPAPAAPAAPAPGGRGNCAYHKGQIIWCTYH
modifications: C-terminal -NH2 as printed in the 1st table; N-terminal Gln designed to be pyroglutamylated
B3: QET-Z34CM-PA32-Fc3K (peptide)
chain: QETFNMQCQRRFYEALHDPNLNEEQRNARIRSIREECGGAAPAAPAPAAPAAPAPAAPAAPAPAAPAAPAPGGRGNCAYHKGQIIWCTYH
modifications: C-terminal -NH2 as printed in the 1st table; N-terminal Gln designed to be pyroglutamylated
B4: QET-Fc3K-PA48-Z34CM (peptide)
chain: QETRGNCAYHKGQIIWCTYHGGAAPAAPAPAAPAAPAPAAPAAPAPAAPAAPAPAAPAAPAPAAPAAPAPGGFNMQCQRRFYEALHDPNLNEEQRNARIRSIREEC
modifications: C-terminal -NH2 as printed in the 1st table; N-terminal Gln designed to be pyroglutamylated

Target: T1, Fc protein of human IgG1 antibody (human, UniProt P01857-1 100-330 = IgG part, limits assumed)
T1 construct: domain: Fc; Immobilised on a CM5 chip by amine coupling at about 1400 RU; also called Fc region of an IgG1 antibody
Test: SPR Biacore T200, 25 C, Fc of human IgG1 amine-coupled on CM5, peptide as analyte, single cycle kinetics

Kd [nM] | Binder
12.7 | B1
8.98 | B2
7.91 | B3
8.48 | B4
